Article PMC7721868 (Scientific Reports, 2020)

B1: GST fusion protein of the constitutively open mutant of cytoplasmic region Stx3 (L165A/E166A) (domain or fragment, rat, UniProt Q08849 1-265, looked up)
chain: MKDRLEQLKAKQLTQDDDTDEVEIAIDNTAFMDEFFSEIEETRLNIDKISEHVEEAKKLYSIILSAPIPEPKTKDDLEQLTTEIKKRANNVRNKLKSMEKHIEEDEVRSSADLRIRKSQHSVLSRKFVEVMTKYNEAQVDFRERSKGRIQRQLEITGKKTTDEEAAEMLESGNPAIFTSGIIDSQISKQALSEIEGRHKDIVRLESSIKELHDMFMDIAMLVENQGEMLDNIELNVMHTVDHVEKARDETKRAMKYQGQARKKLI
notes: syntaxin 3 (Stx3), rat, cytoplasmic region, residues 1-265, with LE165/166AA; Made by site-directed mutagenesis in the Stx3 (1–265) pGEX-4T-3 plasmid; also called open-conformation mutant (LE165/166AA); source: E. coli Rosetta 2, purified (glutathione agarose, eluted with glutathione, dialyzed)
B2: GST-fusion protein containing only the Habc domain (1–146) of Stx3 (domain or fragment, rat, UniProt Q08849 1-146, looked up)
chain: MKDRLEQLKAKQLTQDDDTDEVEIAIDNTAFMDEFFSEIEETRLNIDKISEHVEEAKKLYSIILSAPIPEPKTKDDLEQLTTEIKKRANNVRNKLKSMEKHIEEDEVRSSADLRIRKSQHSVLSRKFVEVMTKYNEAQVDFRERSK
notes: syntaxin 3 (Stx3), rat, N-terminal region with the Habc domain, residues 1-146; Cloned into pGEX-4T-3, which by my knowledge puts GST at the N-terminus; also called GST-Stx3-Habc; GST-Stx3-1–146; source: E. coli Rosetta 2, purified (glutathione agarose, eluted with glutathione, dialyzed)

Legend:
[1] = molecular target: T1, ubiquitin on ubiquitin-coated agarose beads (UniProt P0CG53 1-76); assay: pull-down; ubiquitin-coated agarose beads with 1 µM purified GST-fusion protein in Buffer A (25 mM HEPES–KOH pH 7.4, 125 mM potassium acetate, 2.5 mM magnesium acetate, 5 mM EGTA) + 1% FBS, 2 h at room temperature; uncoated CL4B beads as control; immunoblot with anti-GST or anti-Stx3; settings: both partners purified
T1 construct: ubiquitin, the cut product of the ubiquitin precursors; Coupled to agarose; also called ubiquitin-coated beads; ubiquitin-coated (U) agarose beads; source: bought: Millipore-Sigma (ubiquitin-coated agarose)

[2] = molecular target: T2, Purified bovine ubiquitin (bovine, UniProt P0CG53 1-76); assay: SPR; Biacore 2000, room temperature, HBS-EP buffer (10 mM HEPES pH 7.4, 150 mM NaCl, 3 mM EDTA, 0.005% Tween-20); GST-fusion proteins captured on a CM5 chip with a GST capture kit, free ubiquitin flowed over; settings: both partners purified
T2 construct: ubiquitin, bovine, the cut product of the ubiquitin precursors; also called free ubiquitin; mono-ubiquitin in solution; source: bought: Millipore-Sigma (U6253)

Binder	fold change of pull-down against wild-type Stx3 [1] [fold]	Kd [2] [mM]	fold change of pull-down against the entire Stx3 cytoplasmic domain [1] [fold]
B1	1.73	–	–
B2	–	1.36	3.78
